In patent publication US20020052313A1:

Tests used:
[1] = target: low-affinity NGF binding sites on murine unfractionated sIg^+ B cells (mouse) (UniProt Q9Z0W1); assay: equilibrium binding of 125I-NGF on acid-treated murine splenic B lymphocytes (unfractionated sIg+ cells), low-affinity sites
[2] = target: high-affinity NGF binding sites on murine unfractionated sIg^+ B cells (mouse) (UniProt Q3UFB7); assay: equilibrium binding of 125I-NGF on acid-treated murine splenic B lymphocytes (unfractionated sIg+ cells), high-affinity sites
[3] = target: p75^NGFR (human, on B lymphocytes) (human) (UniProt P08138); assay: equilibrium binding of 125I-NGF, Scatchard analysis, large (in vivo activated) human tonsil B cells, low-affinity class of sites
[4] = target: p75^NGFR (human, on B lymphocytes) (human) (UniProt P08138); assay: equilibrium binding of 125I-NGF, Scatchard analysis, small resting human B lymphocytes after acid (pH 3.0) treatment, low-affinity receptors
[5] = target: gp39 (CD40 ligand) (human) (UniProt P29965); assay: cell-based or functional assay
Sequence of UniProt P29965 (P29965 whole entry): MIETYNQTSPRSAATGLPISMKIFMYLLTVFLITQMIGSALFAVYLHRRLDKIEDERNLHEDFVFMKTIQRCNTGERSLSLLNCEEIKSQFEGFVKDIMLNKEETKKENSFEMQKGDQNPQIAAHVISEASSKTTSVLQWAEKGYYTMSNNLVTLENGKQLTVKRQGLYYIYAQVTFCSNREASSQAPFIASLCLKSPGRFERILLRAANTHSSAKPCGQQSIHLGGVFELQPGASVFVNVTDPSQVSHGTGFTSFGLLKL

Sequence of UniProt P08138 (P08138 29-427): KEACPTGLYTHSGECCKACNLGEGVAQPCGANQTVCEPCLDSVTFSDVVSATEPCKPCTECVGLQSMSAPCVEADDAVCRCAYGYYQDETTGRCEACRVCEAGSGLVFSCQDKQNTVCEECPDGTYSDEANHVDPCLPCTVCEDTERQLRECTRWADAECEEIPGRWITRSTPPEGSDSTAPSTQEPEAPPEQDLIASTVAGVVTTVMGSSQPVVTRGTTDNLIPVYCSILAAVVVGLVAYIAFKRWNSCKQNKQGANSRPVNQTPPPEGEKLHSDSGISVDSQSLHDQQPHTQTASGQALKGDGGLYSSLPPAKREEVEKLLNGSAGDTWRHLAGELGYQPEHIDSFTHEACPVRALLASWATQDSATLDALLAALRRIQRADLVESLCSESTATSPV
Sequence of UniProt Q9Z0W1 (Q9Z0W1 32-427): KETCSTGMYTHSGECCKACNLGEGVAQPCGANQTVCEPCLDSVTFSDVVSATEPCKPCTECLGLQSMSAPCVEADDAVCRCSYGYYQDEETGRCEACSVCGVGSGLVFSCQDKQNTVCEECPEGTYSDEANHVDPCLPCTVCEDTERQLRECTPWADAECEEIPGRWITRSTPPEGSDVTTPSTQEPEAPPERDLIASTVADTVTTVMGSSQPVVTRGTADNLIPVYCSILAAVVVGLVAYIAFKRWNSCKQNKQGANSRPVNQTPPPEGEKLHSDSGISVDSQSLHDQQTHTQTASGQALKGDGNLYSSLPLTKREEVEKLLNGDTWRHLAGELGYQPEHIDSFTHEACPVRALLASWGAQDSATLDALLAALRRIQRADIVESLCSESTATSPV
Sequence of UniProt Q3UFB7 (Q3UFB7 34-799): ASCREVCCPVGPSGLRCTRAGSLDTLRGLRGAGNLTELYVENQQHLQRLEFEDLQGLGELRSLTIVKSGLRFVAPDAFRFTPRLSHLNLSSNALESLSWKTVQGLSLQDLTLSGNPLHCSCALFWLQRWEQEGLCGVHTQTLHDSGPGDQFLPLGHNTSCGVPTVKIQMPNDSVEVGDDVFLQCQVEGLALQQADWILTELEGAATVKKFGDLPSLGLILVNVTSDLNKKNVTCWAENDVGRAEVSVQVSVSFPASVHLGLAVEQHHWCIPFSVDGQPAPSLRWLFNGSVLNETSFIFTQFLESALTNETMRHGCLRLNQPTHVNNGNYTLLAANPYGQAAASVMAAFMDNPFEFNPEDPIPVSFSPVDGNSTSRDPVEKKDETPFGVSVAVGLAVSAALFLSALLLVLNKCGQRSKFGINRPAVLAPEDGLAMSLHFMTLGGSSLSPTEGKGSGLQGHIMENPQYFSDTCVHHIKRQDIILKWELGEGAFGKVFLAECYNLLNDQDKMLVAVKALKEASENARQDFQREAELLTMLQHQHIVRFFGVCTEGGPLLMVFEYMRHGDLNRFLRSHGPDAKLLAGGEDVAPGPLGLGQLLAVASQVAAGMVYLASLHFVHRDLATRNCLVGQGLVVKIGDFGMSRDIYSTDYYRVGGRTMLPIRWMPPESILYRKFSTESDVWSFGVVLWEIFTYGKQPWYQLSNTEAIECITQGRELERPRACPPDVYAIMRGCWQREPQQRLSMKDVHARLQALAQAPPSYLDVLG

Substance | Kd [1] [nM] | binding sites per cell (binding sites per cell) [1] | Kd [2] [nM] | binding sites per cell (binding sites per cell) [2] | Kd [3] [nM] | binding sites/cell (binding sites/cell) [3] | Kd [4] [nM] | binding sites/cell (binding sites/cell) [4] | IgA (ng/ml) in supernatants of PWM-stimulated human PBMNC, PWM + CD40µ (CD4µ control 9,865) [5] [ng/mL] | IgG (ng/ml) in supernatants of PWM-stimulated human PBMNC, PWM + CD40µ (CD4µ control 1,024) [5] [ng/mL] | IgM (ng/ml) in supernatants of PWM-stimulated human PBMNC, PWM + CD40µ (CD4µ control 928) [5] [ng/mL]
^125I-NGF (Nerve Growth Factor, radio-iodinated, Amersham) (ligand) | 1.1 | 1e+06 | 0.135 | 4800 | 1 | 1e+06 | 1 | 1e+06 |  |  | 
soluble CD40 pentamer (from UniProt P25942 21-193) |  |  |  |  |  |  |  |  | 4790 | 554 | 1530
